Test results published in the supplement of paper PMC10724198.

Key:
Saccharomyces cerevisiae [1] = test: protein stability index of tFT-peptide fusion in wild type (PSI (0-1 scale)); higher = more stable (slower turnover); conditions: genetic background: wild type
Method: (§1)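 MPS profiling in S. cerevisiae of two library types built from selected 12-aa C-degron peptides (IN1, IN2, LN1, LN3, VN2, R1-R5, W1-W3, Atg1 and Rpa12 C-termini): saturation mutagenesis libraries and C-terminal +1 capping libraries (13 aa). Each peptide is fused to the C-terminus of a sfGFP-mCherry timer, after a GGGS linker. Cells are FACS-sorted into 8 mCherry/sfGFP bins and sequenced. PSI runs from 0 (unstable) to 1 (stable), measured once in wild type and in the das1Δ or doa10Δ background.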

Saccharomyces cerevisiae [2] = test: protein stability index of tFT-peptide fusion in deletion strain of DAS1 (PSI (0-1 scale)); higher = more stable (slower turnover)
Method: as §1
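Throughout, for protein stability index of tFT-peptide fusion in deletion strain of DAS1: PSI is a weighted mean of each variant's read distribution over the sorted stability bins, computed only for variants having over 10 reads in total.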
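Throughout, for protein stability index of tFT-peptide fusion in wild type: PSI derived as read-weighted mean over the 8 sorting bins, only variants exceeding 10 total reads kept, mCherry placed adjacent to the peptide and sfGFP distal.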

Sequence: CTSCGYKFRQNN
- protein stability index (Saccharomyces cerevisiae [1]): 0.497
- protein stability index (Saccharomyces cerevisiae [2]): 0.69

Sequence: CTSCGYKFRTCN
- protein stability index (Saccharomyces cerevisiae [1]): 0.18
- protein stability index (Saccharomyces cerevisiae [2]): 0.702

Sequence: CTSCGYKFRTNF
- protein stability index (Saccharomyces cerevisiae [1]): 0.417
- protein stability index (Saccharomyces cerevisiae [2]): 0.712

Sequence: CTSCGYKFRTNNH
- protein stability index (Saccharomyces cerevisiae [1]): 0.687
- protein stability index (Saccharomyces cerevisiae [2]): 0.706

Sequence: CTSCGYKFRTNNK
- protein stability index (Saccharomyces cerevisiae [1]): 0.669
- protein stability index (Saccharomyces cerevisiae [2]): 0.682

Sequence: CTSCGYKFRTNR
- protein stability index (Saccharomyces cerevisiae [1]): 0.696
- protein stability index (Saccharomyces cerevisiae [2]): 0.692

Sequence: CTSCGYKFRTNY
- protein stability index (Saccharomyces cerevisiae [1]): 0.611
- protein stability index (Saccharomyces cerevisiae [2]): 0.742

Sequence: CTSCGYKFRTQN
- protein stability index (Saccharomyces cerevisiae [1]): 0.201
- protein stability index (Saccharomyces cerevisiae [2]): 0.663

Sequence: CTSCGYKFSTNN
- protein stability index (Saccharomyces cerevisiae [1]): 0.684
- protein stability index (Saccharomyces cerevisiae [2]): 0.713

Sequence: CTSCYYKFRTNN
- protein stability index (Saccharomyces cerevisiae [1]): 0.199
- protein stability index (Saccharomyces cerevisiae [2]): 0.639

Sequence: CTSEGYKFRTNN
- protein stability index (Saccharomyces cerevisiae [1]): 0.507
- protein stability index (Saccharomyces cerevisiae [2]): 0.68

Sequence: CTSQGYKFRTNN
- protein stability index (Saccharomyces cerevisiae [1]): 0.251
- protein stability index (Saccharomyces cerevisiae [2]): 0.678

Sequence: CTTCGYKFRTNN
- protein stability index (Saccharomyces cerevisiae [1]): 0.267
- protein stability index (Saccharomyces cerevisiae [2]): 0.677

Sequence: DLIQPLPVQFLN
- protein stability index (Saccharomyces cerevisiae [1]): 0.127
- protein stability index (Saccharomyces cerevisiae [2]): 0.59

Sequence: ERWRVGLWRGAS
- protein stability index (Saccharomyces cerevisiae [1]): 0.378
- protein stability index (Saccharomyces cerevisiae [2]): 0.741

Sequence: ETSCGYKFRTNN
- protein stability index (Saccharomyces cerevisiae [1]): 0.266
- protein stability index (Saccharomyces cerevisiae [2]): 0.672

Sequence: FDMRWTFRYWVN
- protein stability index (Saccharomyces cerevisiae [1]): 0.089
- protein stability index (Saccharomyces cerevisiae [2]): 0.557

Sequence: FEMRWTFRYWVN
- protein stability index (Saccharomyces cerevisiae [1]): 0.0443
- protein stability index (Saccharomyces cerevisiae [2]): 0.437

Sequence: FFMRWTFRYWVN
- protein stability index (Saccharomyces cerevisiae [1]): 0.0417
- protein stability index (Saccharomyces cerevisiae [2]): 0.371

Sequence: FSERWTFRYWVN
- protein stability index (Saccharomyces cerevisiae [1]): 0.122
- protein stability index (Saccharomyces cerevisiae [2]): 0.604

Sequence: FSMCWTFRYWVN
- protein stability index (Saccharomyces cerevisiae [1]): 0.0491
- protein stability index (Saccharomyces cerevisiae [2]): 0.412

Sequence: FSMDWTFRYWVN
- protein stability index (Saccharomyces cerevisiae [1]): 0.0547
- protein stability index (Saccharomyces cerevisiae [2]): 0.543

Sequence: FSMIWTFRYWVN
- protein stability index (Saccharomyces cerevisiae [1]): 0.0367
- protein stability index (Saccharomyces cerevisiae [2]): 0.301

Sequence: FSMKWTFRYWVN
- protein stability index (Saccharomyces cerevisiae [1]): 0.0449
- protein stability index (Saccharomyces cerevisiae [2]): 0.565

Sequence: FSMPWTFRYWVN
- protein stability index (Saccharomyces cerevisiae [1]): 0.11
- protein stability index (Saccharomyces cerevisiae [2]): 0.598

Sequence: FSMRKTFRYWVN
- protein stability index (Saccharomyces cerevisiae [1]): 0.0767
- protein stability index (Saccharomyces cerevisiae [2]): 0.577

Sequence: FSMRPTFRYWVN
- protein stability index (Saccharomyces cerevisiae [1]): 0.12
- protein stability index (Saccharomyces cerevisiae [2]): 0.562

Sequence: FSMRWHFRYWVN
- protein stability index (Saccharomyces cerevisiae [1]): 0.0543
- protein stability index (Saccharomyces cerevisiae [2]): 0.756

Sequence: FSMRWIFRYWVN
- protein stability index (Saccharomyces cerevisiae [1]): 0.163
- protein stability index (Saccharomyces cerevisiae [2]): 0.535

Sequence: FSMRWMFRYWVN
- protein stability index (Saccharomyces cerevisiae [1]): 0.094
- protein stability index (Saccharomyces cerevisiae [2]): 0.528

Sequence: FSMRWPFRYWVN
- protein stability index (Saccharomyces cerevisiae [1]): 0.0756
- protein stability index (Saccharomyces cerevisiae [2]): 0.569

Sequence: FSMRWRFRYWVN
- protein stability index (Saccharomyces cerevisiae [1]): 0.0911
- protein stability index (Saccharomyces cerevisiae [2]): 0.584

Sequence: FSMRWTFRMWVN
- protein stability index (Saccharomyces cerevisiae [1]): 0.0197
- protein stability index (Saccharomyces cerevisiae [2]): 0.31

Sequence: FSMRWTFRPWVN
- protein stability index (Saccharomyces cerevisiae [1]): 0.245
- protein stability index (Saccharomyces cerevisiae [2]): 0.6

Sequence: FSMRWTFRVWVN
- protein stability index (Saccharomyces cerevisiae [1]): 0.035
- protein stability index (Saccharomyces cerevisiae [2]): 0.271

Sequence: FSMRWTFRYPVN
- protein stability index (Saccharomyces cerevisiae [1]): 0.548
- protein stability index (Saccharomyces cerevisiae [2]): 0.555

Sequence: FSMRWTFRYWCN
- protein stability index (Saccharomyces cerevisiae [1]): 0.081
- protein stability index (Saccharomyces cerevisiae [2]): 0.516

Sequence: FSMRWTFRYWVF
- protein stability index (Saccharomyces cerevisiae [1]): 0.0705
- protein stability index (Saccharomyces cerevisiae [2]): 0.439

Sequence: FSMRWTFRYWVND
- protein stability index (Saccharomyces cerevisiae [1]): 0.539
- protein stability index (Saccharomyces cerevisiae [2]): 0.557

Sequence: FSMRWTFRYWVNG
- protein stability index (Saccharomyces cerevisiae [1]): 0.431
- protein stability index (Saccharomyces cerevisiae [2]): 0.537

Sequence: FSMRWTFRYWVNM
- protein stability index (Saccharomyces cerevisiae [1]): 0.113
- protein stability index (Saccharomyces cerevisiae [2]): 0.543

Sequence: FSMRWTYRYWVN
- protein stability index (Saccharomyces cerevisiae [1]): 0.0544
- protein stability index (Saccharomyces cerevisiae [2]): 0.504

Sequence: FTMRWTFRYWVN
- protein stability index (Saccharomyces cerevisiae [1]): 0.0324
- protein stability index (Saccharomyces cerevisiae [2]): 0.428

Sequence: GSLAASFWRVVG
- protein stability index (Saccharomyces cerevisiae [1]): 0.147
- protein stability index (Saccharomyces cerevisiae [2]): 0.689

Sequence: GVVYLSCVACIN
- protein stability index (Saccharomyces cerevisiae [1]): 0.0144
- protein stability index (Saccharomyces cerevisiae [2]): 0.0346

Sequence: HKHKKGQKQKIN
- protein stability index (Saccharomyces cerevisiae [1]): 0.114
- protein stability index (Saccharomyces cerevisiae [2]): 0.604

Sequence: KFHKKGQKQKIN
- protein stability index (Saccharomyces cerevisiae [1]): 0.139
- protein stability index (Saccharomyces cerevisiae [2]): 0.576

Sequence: KKGKKGQKQKIN
- protein stability index (Saccharomyces cerevisiae [1]): 0.11
- protein stability index (Saccharomyces cerevisiae [2]): 0.592

Sequence: KKHGKGQKQKIN
- protein stability index (Saccharomyces cerevisiae [1]): 0.0862
- protein stability index (Saccharomyces cerevisiae [2]): 0.707

Sequence: KKHKKGAKQKIN
- protein stability index (Saccharomyces cerevisiae [1]): 0.0819
- protein stability index (Saccharomyces cerevisiae [2]): 0.608

Sequence: KKHKKGHKQKIN
- protein stability index (Saccharomyces cerevisiae [1]): 0.111
- protein stability index (Saccharomyces cerevisiae [2]): 0.592

Sequence: KKHKKGQFQKIN
- protein stability index (Saccharomyces cerevisiae [1]): 0.112
- protein stability index (Saccharomyces cerevisiae [2]): 0.618

Sequence: KKHKKGQKCKIN
- protein stability index (Saccharomyces cerevisiae [1]): 0.153
- protein stability index (Saccharomyces cerevisiae [2]): 0.59

Sequence: KKHKKGQKQKFN
- protein stability index (Saccharomyces cerevisiae [1]): 0.307
- protein stability index (Saccharomyces cerevisiae [2]): 0.635

Sequence: KKHKKGQKQKHN
- protein stability index (Saccharomyces cerevisiae [1]): 0.439
- protein stability index (Saccharomyces cerevisiae [2]): 0.653

Sequence: KKHKKGQKQKIM
- protein stability index (Saccharomyces cerevisiae [1]): 0.179
- protein stability index (Saccharomyces cerevisiae [2]): 0.609

Sequence: KKHKKGQKQKINE
- protein stability index (Saccharomyces cerevisiae [1]): 0.635
- protein stability index (Saccharomyces cerevisiae [2]): 0.662

Sequence: KKHKKGQKQKIV
- protein stability index (Saccharomyces cerevisiae [1]): 0.136
- protein stability index (Saccharomyces cerevisiae [2]): 0.596

Sequence: KKHKKGQKQKLN
- protein stability index (Saccharomyces cerevisiae [1]): 0.133
- protein stability index (Saccharomyces cerevisiae [2]): 0.602

Sequence: KKHKKGQKQKTN
- protein stability index (Saccharomyces cerevisiae [1]): 0.472
- protein stability index (Saccharomyces cerevisiae [2]): 0.619

Sequence: KKHKKGQKQNIN
- protein stability index (Saccharomyces cerevisiae [1]): 0.618
- protein stability index (Saccharomyces cerevisiae [2]): 0.54

Sequence: KKHKKGQKQRIN
- protein stability index (Saccharomyces cerevisiae [1]): 0.127
- protein stability index (Saccharomyces cerevisiae [2]): 0.642

Sequence: KKHKKGQKQVIN
- protein stability index (Saccharomyces cerevisiae [1]): 0.579
- protein stability index (Saccharomyces cerevisiae [2]): 0.629

Sequence: KKHKKGQKQYIN
- protein stability index (Saccharomyces cerevisiae [1]): 0.24
- protein stability index (Saccharomyces cerevisiae [2]): 0.678

Sequence: KKHKKLQKQKIN
- protein stability index (Saccharomyces cerevisiae [1]): 0.054
- protein stability index (Saccharomyces cerevisiae [2]): 0.602

Sequence: KKHKKNQKQKIN
- protein stability index (Saccharomyces cerevisiae [1]): 0.217
- protein stability index (Saccharomyces cerevisiae [2]): 0.585

Sequence: KKHKKRQKQKIN
- protein stability index (Saccharomyces cerevisiae [1]): 0.0558
- protein stability index (Saccharomyces cerevisiae [2]): 0.587

Sequence: KKHKKVQKQKIN
- protein stability index (Saccharomyces cerevisiae [1]): 0.165
- protein stability index (Saccharomyces cerevisiae [2]): 0.619

Sequence: KKHKTGQKQKIN
- protein stability index (Saccharomyces cerevisiae [1]): 0.0826
- protein stability index (Saccharomyces cerevisiae [2]): 0.628

Sequence: KKHWKGQKQKIN
- protein stability index (Saccharomyces cerevisiae [1]): 0.112
- protein stability index (Saccharomyces cerevisiae [2]): 0.594

Sequence: KRGAVGGWRLVG
- protein stability index (Saccharomyces cerevisiae [1]): 0.165
- protein stability index (Saccharomyces cerevisiae [2]): 0.648

Sequence: KSHKKGQKQKIN
- protein stability index (Saccharomyces cerevisiae [1]): 0.119
- protein stability index (Saccharomyces cerevisiae [2]): 0.6

Sequence: KYHKKGQKQKIN
- protein stability index (Saccharomyces cerevisiae [1]): 0.0981
- protein stability index (Saccharomyces cerevisiae [2]): 0.595

Sequence: LIILRQKMNHQN
- protein stability index (Saccharomyces cerevisiae [1]): 0.152
- protein stability index (Saccharomyces cerevisiae [2]): 0.661

Sequence: LIVYLSCVACIN
- protein stability index (Saccharomyces cerevisiae [1]): 0.0145
- protein stability index (Saccharomyces cerevisiae [2]): 0.0335

Sequence: LKGLRQKMNHQN
- protein stability index (Saccharomyces cerevisiae [1]): 0.196
- protein stability index (Saccharomyces cerevisiae [2]): 0.669

Sequence: LKIKRQKMNHQN
- protein stability index (Saccharomyces cerevisiae [1]): 0.208
- protein stability index (Saccharomyces cerevisiae [2]): 0.683

Sequence: LKILMQKMNHQN
- protein stability index (Saccharomyces cerevisiae [1]): 0.244
- protein stability index (Saccharomyces cerevisiae [2]): 0.687

Sequence: LKILQQKMNHQN
- protein stability index (Saccharomyces cerevisiae [1]): 0.163
- protein stability index (Saccharomyces cerevisiae [2]): 0.676

Sequence: LKILRDKMNHQN
- protein stability index (Saccharomyces cerevisiae [1]): 0.232
- protein stability index (Saccharomyces cerevisiae [2]): 0.677

Sequence: LKILRKKMNHQN
- protein stability index (Saccharomyces cerevisiae [1]): 0.224
- protein stability index (Saccharomyces cerevisiae [2]): 0.662

Sequence: LKILRQFMNHQN
- protein stability index (Saccharomyces cerevisiae [1]): 0.192
- protein stability index (Saccharomyces cerevisiae [2]): 0.664

Sequence: LKILRQKKNHQN
- protein stability index (Saccharomyces cerevisiae [1]): 0.312
- protein stability index (Saccharomyces cerevisiae [2]): 0.678

Sequence: LKILRQKLNHQN
- protein stability index (Saccharomyces cerevisiae [1]): 0.187
- protein stability index (Saccharomyces cerevisiae [2]): 0.676

Sequence: LKILRQKMIHQN
- protein stability index (Saccharomyces cerevisiae [1]): 0.196
- protein stability index (Saccharomyces cerevisiae [2]): 0.682

Sequence: LKILRQKMMHQN
- protein stability index (Saccharomyces cerevisiae [1]): 0.232
- protein stability index (Saccharomyces cerevisiae [2]): 0.62

Sequence: LKILRQKMNHFN
- protein stability index (Saccharomyces cerevisiae [1]): 0.21
- protein stability index (Saccharomyces cerevisiae [2]): 0.675

Sequence: LKILRQKMNHGN
- protein stability index (Saccharomyces cerevisiae [1]): 0.47
- protein stability index (Saccharomyces cerevisiae [2]): 0.672

Sequence: LKILRQKMNHHN
- protein stability index (Saccharomyces cerevisiae [1]): 0.247
- protein stability index (Saccharomyces cerevisiae [2]): 0.688
